Source: patent US20220390449A1, “NEW S[…] FOR THE LATENT FORM OF TOXOPLASMOSIS” (INSERM (INSTITUT NATIONAL DE LA SANTÉ ET DE LA RECHERCHE …, priority 2019, published 2022)

Experiments:
TgHDAC3 = conditions: low doses, RH strain; cited from earlier work
[1] = tested on: T. gondii-infected HFF cells; test: FR235222 treatment and induction of BCLA (proteomics, western blot, immunofluorescence); type: cell-based, Toxoplasma gondii
Protocol: Host cells and parasites culture. HFF primary cells (Bougdour et al., 2009), RAW264.7, L929, HCT116, A549 and HEK293 cells were cultured in Dulbecco's Modified eagle Medium (DMEM) (Thermo fischer Scientific, France) supplemented with 10% heat-inactivated fetal Bovine Serum (FBS) (Invitrogen), 10 mM (4-(2-hydroxyethyl)-1-piperazine ethanesulphonic acid) (HEPES) buffer pH 7.2, 2 mM L-glutamine and 50 μg/ml of penicillin and streptomycin (Thermo Fisher Scientific). Cells were incubated at 37° C. in 5% CO2. The following Toxoplasma strains were used in this study: type I (RH, GT1), type II (ME49), type III (CTG), atypical (COUG), Neospora caninum; RHΔku80 (Huynh and Carruthers, 2009), PruΔku80 (Fox et al., 2011), PruA7 (Saeij et al., 2007), COUGΔmyr1 (Hakimi, unpublished), PruΔku80Δbcla, PruΔku80-HF-BCLA and 76k-GFP-luc-Δbcla obtained in this study. All parasite strains were maintained in vitro by serial passage on monolayers of HFFs. T. gondii transfection. T. gondii RHΔku80, PruΔku80 and 76k-GFP-luc were electroporated with vectors in cytomix buffer (120 mM KCl, 0.15 mM CaCl2, 10 mM K2HPO4/KH2PO4, pH 7.6, 25 mM HEPES pH 7.6, 2 mM EGTA, 5 mM MgCl2) using a BTX ECM 630 machine (Harvard Apparatus). Electroporation was performed in a 2 mm cuvette at 1.100 V, 25Ω and 25 μF. Stable transgenic parasites were selected with 1 μM pyrimethamine, single-cloned in 96 well plates by limiting dilution and verified by immunofluorescence assay.
FR235222 treatment and induction. FR235222 was provided by Astellas Pharma Inc. (Osaka, Japan) and dissolved into DMSO as described by Bougdour et al., 2009 and the final concentration in culture medium was either 25 ng/mL or 50 ng/mL. The media containing FR235222 was added to infected HFF cells 16 hours after infection for 24 h to 7 days.
Immunofluorescence microscopy. Immunofluorescence assays on in vitro parasites were performed as described previously (Braun et al., 2013). In brief, T. gondii-infected HFF cells grown on coverslips or cysts purified from brains of mice were fixed in 3% formaldehyde for 20 min at room temperature, permeabilised with 0.1% (v/v) Triton X-100 for 15 min and blocked in phosphate-buffered saline (PBS) containing 3% (v/v) bovine serum albumin (BSA). For immunolabeling on histological sections of brains, the brain layers spotted on glass slides were first solvent-dewaxed using toluene for 3*10 min and absolute alcohol for 3*10 min. The slides were then treated with citrate buffer pH 6, heated at 100° C. during 1 hour, rinsed with water for 2*10 min and blocked in PBS containing 3% (v/v) bovine serum albumin (BSA). The cells or brain layers were then incubated for 1 hour with the primary antibodies indicated in the figures followed by the addition of secondary antibodies conjugated to Alexa Fluor 488 or 594 (Molecular Probes) at a 1:1,000 dilution for 1 hour. Nuclei of both host cells and parasites were stained for 10 min at room temperature with Hoechst 33258 at 2 μg/ml in PBS. Coverslips were mounted on a glass slide with Mowiol mounting medium, images were acquired with a fluorescence ZEISS ApoTome.2 microscope and images were processed by ZEN software (Zeiss).
Western Blot. Proteins were separated by SDS-PAGE and transferred to a polyvinylidene fluoride membrane (Immobilon-P; EMP Millipore) by liquid transfer, and Western blots were probed using appropriate primary antibodies followed by phosphatase-conjugated goat secondary antibodies (Promega). Signals were detected using NBT-BCIP (Amresco).

[2] = tested on: anti-T. gondii IgG antibodies of mice; test: Western-blot BCLA serological testing on mice sera; type: binding
[3] = Solubility of rBCLA recombinantly expressed in E. coli; type: physicochemical; conditions: native, N-terminal poly-histidine tag
Protocol: Recombinant expression. Transformation was performed using BL21(DE3)-CodonPlus—RIL chemically competent E. coli (Stratagene) which were incubated on ice with 1 μg of the pet30-(a) Cter-BCLA plasmid for 10 minutes, heat shocked at 42° C. for 45 seconds, pre-incubated 45 min in LB at 37° C. then spread on a LB agar plate containing Kanamycin (Kan) and Chloramphenicol (Chlo) and incubated for 12 h. A single colony was then picked to inoculate a LB/Kan/Chlo 50 ml pre-culture grown for 16 h. 5 ml of grown pre-culture were then used to inoculate 1 L flasks of Terrific Broth medium (Formedium) containing Chlo/Kan. Cultures were grown at 37° C. until reaching an OD600 of 0.5-0.8 then induced by adding 0.7 mM IPTG (VWR) and further incubated at 18° C. ON. After incubation, cells were centrifuged 25 min at 3000 G, the supernatant was discarded and the pellet flash frozen in liquid nitrogen and kept at −80° C.
Lysis. Purification was performed on 3 pellets of 1 L cultures, each resuspended in 50 ml of lysis buffer containing 600 mM NaCl, 50 mM Tris pH 8, 5 mM Beta-mercaptoethanol (BME), 0.2% w/v N-Lauryl Sarkozine and 1 Complete anti protease cocktail (Roche) tab per 50 ml. Lysis was performed using a 10 mini-pulsed sonication (15 sec ON, 30 sec OFF) at 50° amplitude over ice with the lysate never reaching a temperature over 13° C. […]

[4] = tested on: trypsin, chymotrypsin, elastase and papain; test: Limited proteolysis of rBCLA; type: physicochemical; conditions: 1/30 w/w, up to 50 minutes at 37° C.
Protocol: Limited proteolysis to find antigenic sub-fragments within Cter-BCLA. To recover a highly antigenic sub-fragment of Cter-BCLA, a limited proteolysis on the purified sample was undertaken using trypsin, chymotrypsin, elastase and papain (all Sigma Aldrich). Reactions were carried out in 30 μl reaction volume in 50 mM Tris pH 8.0, 150 mM NaCl, 5 mM BME and 0.5 mM MgCl2. In each reaction, 3 μg of Cter-BCLA were digested by 100 ng of protease (1/30 w/w) over the course of 50 minutes at 37° C. Reactions were stopped at each time point by the addition of 10 μl of SDS PAGE loading buffer followed by 5 minutes heating at 95° C. then kept on ice until loading on the gel.

[5] = tested on: anti-T. gondii IgG antibodies of mice; test: Western-blot BCLA serological testing on mice sera; type: binding; remark: listed apart in the source
Protocol: Mice and Experimental Infection. 6-weeks-old BALBC/c, CBA, NMRI or Swiss mice were obtained from Janvier Laboratories (Le Genest-Saint-Isle, France). Mouse care and experimental procedures were performed under pathogen free conditions in accordance with established institutional guidance and approved protocols from the Institutional Animal Care and Use Committee of the University Grenoble Alpes (agreement no B3851610006). Female mice were used for all studies. For intraperitoneal (i.p.) infection, tachyzoites were grown in vitro and extracted from host cells by passage through a 27-gauge needle, washed three times in PBS, and quantified with a haemocytometer. Parasites were diluted in Hank's Balanced Salt Solution (Life), and mice were inoculated by the i.p. route with tachyzoites of each strain (in 200 μl) using a 28-gauge needle. For oral gavage of infective cysts, brains from chronically infected mice (76k-GFP-luc and 76k-GFP-luc-Δbcla) were crushed in PBS, the number of cysts was microscopically quantified and the mice were forced fed with 100 μl of brain homogenate containing 20 to 40 cysts using ball-tipped feeding needle. Blood was collected by caudal puncture or by intracardiac puncture when the mice were euthanised. Animal euthanasia was completed in an approved CO2 chamber. For histological analysis of ileum and immunolabeling on histological sections of brains or, the ilea and brains were removed from mice, entirely embedded in a paraffin wax block and cut in 5 μm-thick layers using microtome. For statistical analysis of mice survival data, the Mantel-Cox and Gehan-Breslow-Wilcoxon tests were used.
Western-blot BCLA serological testing. Single western blot strips were prepared using 15 well 4-12% NuPage gels (Life technologies) loaded with 5 μl of sample at 0.1 mg/ml. The gels were run at 185 v for 40 minutes in MES buffer then electro-transferred at 105 v for 1.5 h on PVDF membranes. The transferred lanes were then cut-out into individualized strips. The strips were then blocked in TTBS with 5% powdered milk (w/v) for 1 h. Serum testing was then performed in TTBS with a dilution of 1/400 of the serum for 1 h at 4° C. The strips were then washed 3 times in TTBS and further incubated 1 h with a 1/7500 dilution of secondary antibody targeting either mouse IgGs or human IgGs and coupled with a phosphatase alkaline enzyme (Promega). […] Bands in the positive sera appear within 1 to 5 minutes. In parallel to the serum testing, a single strip was always used as an internal antigen control for each blot set. After blocking, this strip was incubated for 1 h with a peroxidase coupled anti poly-histidine monoclonal antibody (Sigma) diluted 1/2000 in TTBS. […] For each series of i.p. or orally infected mice, a serum of at least on mouse of each series was checked for Toxoplasma antibodies using Western blot analysis of the IgG immune response using the commercial kit LD bio Toxoplasma mouse IgG (LD bio), with the same anti-mouse IgG-alkaline phosphatase conjugate and chromogenic substrate previously described for BCLA.

For FR235222, the “in vitro tachyzoite to bradyzoite stage conversion” value (TgHDAC3) is listed as “induces”, the “BCLA protein induction (quantitative proteomics LC-MS/MS)” value ([1]; FR235222 90 nM versus DMSO 0.1%, type II (PruΔku80) strain in primary human fibroblasts) is listed as “significantly induced” and the “BCLA signal intensity (western blot, ~140-kDa band)” value ([1]; FR235222 versus untreated tachyzoites) is listed as “significantly increased”. For the same molecule, the “BCLA signal intensity upon FR235222 (immunofluorescence, per PV)” value ([1]; type I (GT1 and RHΔku80) and haplogroup 11 (COUG) strains) was “rather moderate”, the “BCLA signal intensity upon FR235222 (immunofluorescence, per PV)” value ([1]; type II (PruΔku80, ME49, 76K-GFP-Luc) strain) was “very strong induction” and the “BCLA signal intensity upon FR235222 (immunofluorescence, per PV)” value ([1]; type III (CTG) strain) was “faint (if no) signal”.

B1: rBCLA: C-terminal antigenic domain, res 1089-1275 of BCLA (SEQ ID NO:2), expressed in E. coli as recombinant protein (protein)
chain: MIPGVGDKTEASVLDSIENAVQKVLENLLKAAAGELQPAEAEEARLLVADLKAVVDTAEQVRVEGEAFFRASVDLYEAVKNLRDSEEKLRPLTKGELVDVVRQFLATQIFVQDRASAFLRVFERLAELLAAEQMKAVFAMVEEGVSSSERVARVAGELVPMMKKDRERRYGDLVAVTSWFMRRMEHI
modifications: Synthetic C-terminal antigenic domain (res 1089-1275)
With B1 the “reactivity of rBCLA with mice sera (immunoblot)” value (from here on “reactivity … (immunoblot)”) ([2]; FIG. 8c: C57BL/6 mice, oral 47 cysts 76k-GFP-luc or 76k-GFP-luc-Δbcla (type II), 8 days (acute)) was “not reacting”, the “reactivity of rBCLA with anti-T. gondii IgM and IgA” value ([2]; mice sera, data not shown) was “not reacting” and the “solubility on expression in E. coli” value [3] was “natively insoluble”. For the same molecule, the “degradation by protease (SDS PAGE)” value ([4]; chymotrypsin) was “quickly degraded”, the “degradation by protease (SDS PAGE)” value ([4]; elastase, trypsin and papain, stable fragments around the 17-kDa marker) was “partially degraded” and the “reactivity … (immunoblot)” value ([5]; FIG. 8a: NMRI mice, i.p. 10^4 tachyzoites COUG and COUG-Δmyr1, 7 days (acute)) was “not reacting”. The “reactivity … (immunoblot)” value ([5]; FIG. 8b: CBA mice, i.p. 10^3 tachyzoites RH (type I), 7 days (acute)) was “not reacting”, the “reactivity … (immunoblot)” value ([5]; FIG. 9a: Balb/c mice, i.p. 10^3 to 10^6 tachyzoites PruA7 (type II), 42 days) was “reacting quite proportionally” and the “reactivity … (immunoblot)” value ([5]; FIG. 9b: CBA mice, i.p. 10^6 tachyzoites ME49 (type II), 80 days) was “strongly reacting”. The “reactivity … (immunoblot)” value ([5]; FIG. 9c: NMRI mice, oral 20 cysts 76k-GFP-luc (type II), 22 months) was “strongly reacting”, the “reactivity … (immunoblot)” value ([5]; FIG. 9e: CBA mice, i.p. 10^3 tachyzoites RH (type I) followed by pyrimethamine or sulfadiazine treatment, 22 days) was “very slightly reacting” and the “reactivity … (immunoblot)” value ([5]; FIG. 9f: NMRI mice, i.p. 10^6 tachyzoites CTG (type III), 42 days) was “not reacting”. The “reactivity … (immunoblot)” value ([5]; FIG. 9g: NMRI mice, i.p. 10^6 tachyzoites PruΔku80 (type II), 42 days) was “not reacting”, the “reactivity … (immunoblot)” value ([5]; FIG. 11a: Swiss mice i.p. infected with T. gondii PCR positive human amniotic fluid (confirmed congenital toxoplasmosis)) was “strongly reacting” and the “reactivity … (immunoblot)” value ([5]; FIG. 9h: Balb/c mice, i.p. 10^5 tachyzoites 76k-GFP-luc (type II), reactivating or not with corticosteroids, 42 days) was “strongly reacting”. The “reactivity … (immunoblot)” value ([5]; FIG. 9d: Balb/c mice, i.p. 10^6 tachyzoites 76k-GFP-luc (type II), 21 days) was “strongly reacting” and the “reactivity … (immunoblot)” value ([5]; FIG. 9d: Balb/c mice, i.p. 10^6 tachyzoites 76k-GFP-luc-Δbcla (type II), 21 days) was “barely reacting”.
